Source: the DeepSol protein solubility set

Assay: soluble on expression in E. coli; label from the status in PepcDB or PDB records
In the case of “MSDLSAQLSAFKNKIKSGPSVIVPRKATFTQSPSSPLSSSTTTTTSKNDANVKKRSTTDSVTRVLKKQKANMGEMTGSHLSTQLHLAVEYIKEHDQPISVEKLQNYLSFDISHTLLPLLNEIDRVKYDESKGTLEYVSLHNIRSSDDLLEFLRRQTTFKGTSVKELKDGWAGCVAAIDELESQGKILVLRNKKENAPRLVWANNGGELGYIDTEFKDMWDQVKLPEPDVLYQKLLDQGLKPTGADPNLIKKQPQQKEKKQKKARRGKITNTHMKGILKDYSQLV”, the “soluble on expression in E. coli” value is reported as “soluble”. For “MGSDKIHHHHHHMIKIETVLDILKKDGLFREIIDQGHYHYNYSKVIFDSISYDSRKVTEDTLFFAKGAAFKKEYLLSAITQGLAWYVAEKDYEVGIPVIIVNDIKKAMSLIAMEFYGNPQEKLKLLAFTGTKGKTTAAYFAYNILSQGHRPAMLSTMNTTLDGETFFKSALTTPESIDLFDMMNQAVQNDRTHLIMEVSSQAYLVKRVYGLTFDVGVFLNISPDHIGPIEHPSFEDYFYHKRLLMEKSRAVIINSDMDHFSVLKEQVEDQDHDFYGSQFDNQIENSKAFSFSATGKLAGDYDIQLIGNFNQENAVAAGLACLRLGASLEDIKKGIAATRVPGRMEVLTQKNGAKVFIDYAHNGDSLKKLINVVETHQTGKIALVLGSTGNKGESRRKDFGLLLNQHPEIQVFLTADDPNYEDPMAIADEISSYINHPVEKIADRQEAIKAAMAITNHELDAVIIAGKGADCYQIIQGKKESYPGDTAVAENYL”, the “soluble on expression in E. coli” value was “not soluble”. For “LAQRAGILCREFAIGFGPKIFSFKKNETVYTIRLLPVGGFVRMAGEDPEMIEVKPGYTVGLLFNKEDQVEKVIINQKEKYPDALVIEVETADLEHDMKITGYEQGKEDELSSFTVSETSFFIVDGEEVQIAPYNRQFGSKPVWQRIKA”, the “soluble on expression in E. coli” value was “not soluble”. In the case of “MSLKLYKEIINLIDNHQATMVEQLHQFCEINSGTTNLTGLAIMAETLCSAFKPIADTTELITLPPLSVIDMTGNTVMQSCGDVLFISKRPHLKRRILLSGHMDTVYSASNPFQKLSYLDANQINGPGVADMKGGLIVILHALAAFENTRFAEDMGWDVLINSDEEIGSPTSGSLFNKLAHRYQAALVYEPAMTPNGTLAKNRKGSGKLTLVATGRAAHAGRAFDEGRNAICYLAEAITAVHALNGQKNGVTINVGKIAGGEALNVVPDKAVAQLDIRISLPEDEIWVRNELNKIIKQLERPDYSLNVHGTFGRPVKRICAGTERLFHRIQKIGEALGLTIDWKDSGGCCDGNNLAHYGLPVLDTLGVRGGNIHSSDEYILLDSLSERAALSALLLIDLAQGGLEDLIKEGHHHHHH”, the “soluble on expression in E. coli” value is reported as “soluble”. For “MTFGAGHLRAAEALIEAVRKKSPEAEITHLDFGAFISKTLNTIVKNTYIELIKHTPRLYGMFYYRTSKIRPQSLIQRFINILGRKEFLDYIKGLNPDVIICTYPVIAGVLGELRFKGVIHAPVVSVVTDYGVHSQYIQRGVDLYIAGCQDVYKDLIAGGIARERIRITGIPVDPKFEEELEHHHHHH”, the “soluble on expression in E. coli” value was “not soluble”. In the case of “MSLVDQIKSYVAMRKYSIKRDEHGIVRLQLNNKDLFQFGPLDQGWWPDGLYTAPTDEALRYDIEKTKDFGFNMIRKHIKVEPARWYTYCDQIGLIVWQDMPSGDKSPEWQNRKYFEGTELTRSAESEETYRKEWKEVIDCLYSYPCIGTWVPFNEAWGQFKTQEIAEWTKQYDPSRLVNPASGGNHYTCGDMLDLHHYPGPEMFLYDAQRATVLGEYGGIGLVLKDHLWEPNRNWGYIQFNTSAEATAEYLKYAGILKDMISRGFSAAVYTQTTDVEVEVNGLMTYDRKVIKLDESKLKKMNTEICNSLKEGHHHHHH”, the “soluble on expression in E. coli” value is reported as “not soluble”. For “SRLYRHNLMEDVFNMENESFMQETRLMENEYSVNLPTRFYYKKRWNNGFVNIVNIFRACMVIGTPGSGKSYAIVNSYIRQLIAKGFAIYIYDYKFDDLSTIAYNSLLKNMDKYEVKPRFYVINFDDPRRSHRCNPINPEFMTDISDAYEASYTIMLNLNRTWIEKQGDFFVESPIILLAAIIWYLKIYKNGIYCTFPHAVELLNKPYSDLFTILTSYPELENYLSPFMDAWKGNAQDQLQGQIASAKIPLTRMISPQLYWVMTGNDFSLDINNPKEPKLLCVGNNPDRQNIYSAALGLYNSRIVKLINKKKQLKCAVIIDELPTIYFRGLDNLIATARSNKVGVLLGFQDFSQLTRDYGEKESKVIQNTVGNIFSGQVVGETAKTLSERFGKVLQQRQSVSINRQDVSTSINTQLDSLIPASKIANLSQGTFVGAVADNFDERIEQKIFHAEIVVDHTKISAEEKAYQKIPVINDFKDRNGNDIMMQQIQRNYDQIKADAQAIINEEMRRIKNDPELRKRLGLEDEKGKDPDKS”, the “soluble on expression in E. coli” value was “not soluble”. For “MAHHHHHHMQRHSRRGLLKYLSGVRVEYGGSAAKLLDSYLHQDAGAKHAANLPVSQRYFYIKNRNNDASLSSATGASQQHQTVQLRLGAAQMLSSSQHTSIDNLNEAHPLYYAQTSPSAAGLAAPLVLALKRLRIRQLTALQGALVPLLLKGKHVIAHSETGTGKSFGIALALANRIIRDQLNYRLHTVVLVPTEELALQYDKWLRHFGGCTSQVVQVAIDSIPLEAQLAKLHNIQPHVLVGTPQRVAEIVRLSPSILGEKLRRKVDCVVLDEADMIIHANVVYGRQQLSGANLVDRLFRNRREEVPAQLVAASATVDGVTAQTLNTWTRNDRTVRLTTSFVEHTIPPTIQFYFFGASRAYPLERCLLLSLQLICTQRPDARILIFTEDERVAEVCTLLTSAEVEGEMRRIAPGALSSTKVFAGALHALPRSIPSADNKESHGPDNPVSHRRVPLTTATQQAAPFSAIRGSGNVYEDVRAHQVIRQHGDVYVKNNSSLSRLNEGKLVVGVGSFNSSRGLHVNGITHVILYGACPSAACFVHCAGRTGRMGAEGDVLVLYPPSSGRQVQQVCSSLEVPFHSSRMSAVEDLLRSGEARTTESAAGAVTESASGAAADNT”, the “soluble on expression in E. coli” value was “not soluble”. With “MDIISVALKRHSTKAFDASKKLTPEQAEQIKTLLQYSPSSTNSQPWHFIVASTEEGKARVAKSAAGNYVFNERKMLDASHVVVFCAKTAMDDVWLKLVVDQEDADGRFATPEAKAANDKGRKFFADMHRKDLHDDAEWMAKQVYLNVGNFLLGVAALGLDAVPIEGFDAAILDAEFGLKEKGYTSLVVVPVGHHSVEDFNATLPKSRLPQNITLTEV” the “soluble on expression in E. coli” value was “soluble”. In the case of “MHKEIAKELLLLAGGKNNIISISHCTTRLRFDVKDETKIDIHAIENLQGVQGTFFRYGLFQIIFGAGVVNKIYKEVVHVWETAPSEEPVHQKKASRKLNPAAAFAKTLSDI”, the “soluble on expression in E. coli” value is reported as “not soluble”. For “HRWITRPKFTHFDLHTLNWDLCLTQANHKSNLALEMLKMLLDSLPETVEKIQTALGQNDQATMLSTIHKLHGASCYCGVPTTQRLCQEIESALKRQTPVEDLEPEILELLDELTKVESAVKQVLSQLSAEITDDQKNGLL”, the “soluble on expression in E. coli” value was “soluble”. For “MGSDKIHHHHHHMSATEKRRYEVLRAIVADYIASQEPVGSKSLLERHKLNVSSATIRNDMSVLESDGFIVQEHASSGRVPTERGYRLFVDSIHDIKPLSLAERRAILGFLEGGVDLEDVLRRSVQLLSQLTHQAAVVQLPTLKTARVKHCEVVPLSPMRLLLVLITDTGRVDQRNVELEEPLAAEEVNVLRDLLNGALGEKTLTAASDALEELAQQAPTDIRDAMRRCCDVLVNTLVDQPSDRLILAGTSNLTRLSRETSASLPMVLEALEEQVVMLKLLSNVTDLDQVRVHIGGENEDIELRSATVITTGYGSQGSALGGLGVVGPTYMDYSGTISKVSAVAKYVGRVLAGE”, the “soluble on expression in E. coli” value was “not soluble”. In the case of “GPLGSKELKVTQPEKSVSVAAGDSTVLNCTLTSLLPVGPIKWYRGVGQSRLLIYSFTGEHFPRVTNVSDATKRNNMDFSIRISNVTPEDAGTYYCVKFQKGPSEPDTEIQSGGGTEVYVL”, the “soluble on expression in E. coli” value is reported as “soluble”. For “MCRLAILALFSVAMVSVYGQDTPPPFLRNATPDQLKSFQQMIQSNGHLTETAMGAKIQEWVDQQGGKVAADWKDFQEFIKGQQGKSEAAHQTAISSFSPEAKKADAELTAISNDASLSIKAKGDKIQAYLTTLPANVKAELEKAQGQ”, the “soluble on expression in E. coli” value was “not soluble”.
